The values that follow come from US20240141059A1 (Bristol-Myers Squibb, published 2024).

Several values for one entry are separate records, joined by “and”; a condition that tells them apart may be missing. Identical values can stand only once. Like-named read-outs stand apart in the source and are kept apart here.

The target of experiment [1] is T1, human CD73 on cells (human, UniProt P21589 27-549).
T1 sequence (looked up): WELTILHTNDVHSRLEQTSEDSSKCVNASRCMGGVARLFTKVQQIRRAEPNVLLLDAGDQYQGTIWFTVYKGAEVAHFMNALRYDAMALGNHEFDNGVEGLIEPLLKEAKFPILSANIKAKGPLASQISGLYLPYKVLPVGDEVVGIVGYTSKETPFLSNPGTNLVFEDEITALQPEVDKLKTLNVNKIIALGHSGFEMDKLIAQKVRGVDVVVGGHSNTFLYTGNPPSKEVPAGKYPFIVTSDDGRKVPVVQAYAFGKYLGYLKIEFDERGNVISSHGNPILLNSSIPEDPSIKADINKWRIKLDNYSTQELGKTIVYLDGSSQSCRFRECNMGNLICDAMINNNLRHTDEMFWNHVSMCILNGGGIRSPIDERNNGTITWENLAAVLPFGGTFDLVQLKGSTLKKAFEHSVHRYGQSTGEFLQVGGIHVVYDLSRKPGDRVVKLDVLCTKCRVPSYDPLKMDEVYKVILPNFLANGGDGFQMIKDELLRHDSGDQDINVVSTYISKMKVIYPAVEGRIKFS
Kind of experiment: cell-based or functional assay.

The target of the next experiment is T2, N-hCD73-his (human, UniProt P21589 26-336, limits assumed).
T2 construct: monomeric in solution by SEC-MALS; also called N-terminal domain of hCD73
T2 sequence (looked up): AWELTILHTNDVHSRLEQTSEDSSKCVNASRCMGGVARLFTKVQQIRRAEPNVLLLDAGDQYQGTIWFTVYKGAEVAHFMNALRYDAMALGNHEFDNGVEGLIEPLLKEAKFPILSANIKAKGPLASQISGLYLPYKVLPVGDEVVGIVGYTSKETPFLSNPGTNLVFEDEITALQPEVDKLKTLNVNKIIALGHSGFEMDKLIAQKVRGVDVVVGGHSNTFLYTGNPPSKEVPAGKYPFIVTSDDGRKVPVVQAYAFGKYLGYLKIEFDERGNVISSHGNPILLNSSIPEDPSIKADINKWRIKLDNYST
Nature of the experiment: SPR, mAb captured on protein A. On the procedure:
The affinity of the antibodies for human CD73 was measured to determine whether the change of the constant region affects them. The affinities were determined by Surface Plasmon Resonance (SPR) as follows. […] For these experiments, protein A (Pierce) was immobilized to a density of 3000-4000 RU on flow cells 1˜4 of a CMS sensor chip (GE Healthcare) using standard ethyl(dimethylaminopropyl) carbodiimide (EDC)/N-hydroxysuccinimide (NHS) chemistry, with ethanolamine blocking, in a running buffer of 0.01 M HEPES pH 7.4, 0.15 M NaCl, 3 mM EDTA, 0.005% v/v tween 20. […] The running buffer for the kinetic experiments was 10 mM sodium phosphate, 130 mM sodium chloride, 0.05% tween 20, pH 7.1. The surfaces were regenerated after each cycle using two 30 s pulses of 10 mM glycine pH 1.5 at a flow rate of 30 μl/min. Sensogram data was double-referenced and then fitted to a 1:1 Langmuir model using Biacore® T100 evaluation software v2.0.4, to determine the association rate constant (ka), the dissociation rate constant (kd), and the equilibrium dissociation constant (KD).
In general terms: SPR reads the build-up and loss of mass on a sensor chip optically.

Experiment [2] addresses T3, hCD73-his (human, UniProt P21589 26-546).
T3 construct: range 26-546; also called full length extracellular domain of human-CD73
T3 sequence (looked up): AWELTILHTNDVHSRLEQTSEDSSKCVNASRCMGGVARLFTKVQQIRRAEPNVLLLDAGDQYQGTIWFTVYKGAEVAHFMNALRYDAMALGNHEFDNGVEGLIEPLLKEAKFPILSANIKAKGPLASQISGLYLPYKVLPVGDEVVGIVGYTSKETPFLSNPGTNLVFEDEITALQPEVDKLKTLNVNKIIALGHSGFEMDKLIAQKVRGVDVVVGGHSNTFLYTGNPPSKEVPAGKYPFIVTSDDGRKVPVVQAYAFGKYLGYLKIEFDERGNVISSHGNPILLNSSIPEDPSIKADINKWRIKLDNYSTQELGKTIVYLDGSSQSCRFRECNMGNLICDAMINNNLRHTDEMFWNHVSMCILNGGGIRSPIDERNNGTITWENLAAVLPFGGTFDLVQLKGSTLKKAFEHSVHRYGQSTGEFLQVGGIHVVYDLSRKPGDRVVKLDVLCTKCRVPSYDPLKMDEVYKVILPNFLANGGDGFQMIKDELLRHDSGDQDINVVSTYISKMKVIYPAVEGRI
Kind of experiment: SEC of equimolar mAb + hCD73-his. On the procedure:
(§1) The oligomeric state of CD73/antibody complexes were examined by size-exclusion chromatography coupled to an in-line multi-angle light scattering detector (SEC-MALS). Isocratic separations were performed on a Shodex PROTEIN KW-803 column connected to an Prominence Shimadzu UFLC in buffer containing 200 mM K₂HPO₄, 150 mM NaCl, pH 6.8, containing 0.02% Na azide (0.1 μm filtered) running at 0.5 mL/min. Samples were injected onto the column using a SIL-20AC Prominence Shimadzu® autosampler, and data were obtained from three online detectors connected in series: a Prominence SPD-20AD diode array UV/vis spectrophotometer followed by a Wyatt miniDAWN™ TREOS Multi-Angle Light Scattering Detector then a Wyatt Optilab T-rEX Refractive Index Detector® instrument. Data were collected and analyzed using Astra® (Wyatt) and Labsolutions® (Shimadzu) software.
CD73.4 antibodies having the heavy chain constant regions set forth in Table 14 were also tested for formation of high molecular weight complexes by SEC-MALS and DLS experiments, as described in Example 3.

The target of experiment [3] is T3, hCD73-his. Nature of the experiment: SEC-MALS, target:mAb 1:1, 2.5 uM + 2.5 uM. The protocol:
The structure and oligomeric state of CD73/antibody complexes in solution were examined by SEC-MALS and DLS.
as §1

Experiment [4] has as its target T1, human CD73 on cells. Nature of the experiment: cell-based or functional assay. This is another data set of the same source.
Experiment [5] concerns the target T1, human CD73 on cells. Nature of the experiment: cell-based or functional assay. The source holds these as a separate data set.
The target in experiment [6] is T1, human CD73 on cells. Nature of the experiment: cell-based or functional assay. The source holds these as a separate data set.
The target of another experiment is T4, human GITR (human, UniProt Q9Y5U5 26-241).
T4 sequence (looked up): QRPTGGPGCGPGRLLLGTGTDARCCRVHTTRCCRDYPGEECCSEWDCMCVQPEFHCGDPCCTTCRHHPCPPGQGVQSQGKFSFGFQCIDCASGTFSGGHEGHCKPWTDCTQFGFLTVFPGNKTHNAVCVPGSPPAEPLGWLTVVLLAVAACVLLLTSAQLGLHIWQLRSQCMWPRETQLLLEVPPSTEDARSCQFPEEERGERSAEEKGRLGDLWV
Nature of the experiment: cell-based or functional assay.

B1: 11F11 (antibody, human IgG2, kappa, V domains shown)
VH: QVQLVESGGGVVQPGRSLRLSCATSGFTFSNYGMHWVRQAPGKGLEWVAVILYDGSNKYYPDSVKGRFTISRDNSKNTLYLQMNSLRAEDTAVYYCARGGSSWYPDSFDIWGQGTMVTVSS
VL: DIQMTQSPSSLSASVGDRVTITCRASQGISSWLAWYQQKPEKAPKSLIYAASSLQSGVPSRFSGSGSGTDFTLTISSLQPEDFATYYCQQYNSYPLTFGGGTKVEIKR
notes: hybridoma derived anti-CD73 antibody, IgG2 constant region; also called 11F11 (IgG2)
Take B1: in the experiment with human CD73 on cells [1], the “internalization EC50, Calu6 cells, 2 h” value amounted to 0.58 nM and the “internalization Ymax (% of 100 nM 11F11), Calu6 cells” value was found to be 98%. Besides, in the experiment with N-hCD73-his, the Kd (as a rule, the equilibrium constant for the complex coming apart) is 1.6 nM and 0.56 nM; the off-rate constant (koff) – broadly, the rate constant with which the complex falls apart – was 0.00042 s⁻¹ and 0.00016 s⁻¹; the kon (as a rule, a measure of how fast the partners come together) was 260000 M⁻¹ s⁻¹ and 290000 M⁻¹ s⁻¹.

B2: CD73.4-IgG2-C219S (antibody)
heavy: QVQLVESGGGVVQPGRSLRLSCAASGFTFSNYGMHWVRQAPGKGLEWVAVILYDGSNKYYPDSVKGRFTISRDNSKNTLYLQMNSLRAEDTAVYYCARGGSSWYPDSFDIWGQGTMVTVSSASTKGPSVFPLAPCSRSTSESTAALGCLVKDYFPEPVTVSWNSGALTSGVHTFPAVLQSSGLYSLSSVVTVPSSNFGTQTYTCNVDHKPSNTKVDKTVERKSCVECPPCPAPPVAGPSVFLFPPKPKDTLMISRTPEVTCVVVDVSHEDPEVQFNWYVDGVEVHNAKTKPREEQFNSTFRVVSVLTVVHQDWLNGKEYKCKVSNKGLPAPIEKTISKTKGQPREPQVYTLPPSREEMTKNQVSLTCLVKGFYPSDIAVEWESNGQPENNYKTTPPMLDSDGSFFLYSKLTVDKSRWQQGNVFSCSVMHEALHNHYTQKSLSLSPG
light: not shown
notes: also called CD73.4-IgG2CS; CD73.4-IgG2.3
For B2, in the experiment with hCD73-his [2], the “UV % Peak1 (<12.9 min)” value is 37%, the “UV % Peak3 (15.1-16.7 min)” value worked out at 7.7%, the “UV % Peak4 (16.7-19.3 min)” value came to 28.6% and the “UV % Peak5 (>19.3 min)” value stood at 2.9%. Moreover, in the experiment with hCD73-his [3], the “MW Peak 1” value is 3400 kDa, the “MW Peak 2” value amounted to 970 kDa and the “MW Peak 3” value worked out at 480 kDa. In addition, in the experiment with human CD73 on cells [4], the “internalization T1/2, Calu6” value turned out to be 36 min; the “internalization T1/2, NCI-H292” value was determined as 16.6 min; the “internalization Ymax, Calu6” value turned out to be 75.6%; the “internalization Ymax, NCI-H292” value was 78.4%. Besides, in the experiment with human CD73 on cells [5], the “% internalization, Calu6 cells” value is 88%; the “% internalization, H228 cells” value was 94%; the “% internalization, H2030 cells” value turned out to be 89%; the “% internalization, HCC15 cells” value was 94%. Further, in the experiment with human CD73 on cells [5], the “internalization T1/2, Calu6 cells” value turned out to be 6.5 min; the “internalization T1/2, H228 cells” value is 13.8 min; the “internalization T1/2, H2030 cells” value was 3.7 min; the “internalization T1/2, HCC15 cells” value is 3.1 min.

B3: CD73.4-IgG2.3-plusTHT (antibody)
heavy: QVQLVESGGGVVQPGRSLRLSCAASGFTFSNYGMHWVRQAPGKGLEWVAVILYDGSNKYYPDSVKGRFTISRDNSKNTLYLQMNSLRAEDTAVYYCARGGSSWYPDSFDIWGQGTMVTVSSASTKGPSVFPLAPCSRSTSESTAALGCLVKDYFPEPVTVSWNSGALTSGVHTFPAVLQSSGLYSLSSVVTVPSSNFGTQTYTCNVDHKPSNTKVDKTVERKSCVETHTCPPCPAPPVAGPSVFLFPPKPKDTLMISRTPEVTCVVVDVSHEDPEVQFNWYVDGVEVHNAKTKPREEQFNSTFRVVSVLTVVHQDWLNGKEYKCKVSNKGLPAPIEKTISKTKGQPREPQVYTLPPSREEMTKNQVSLTCLVKGFYPSDIAVEWESNGQPENNYKTTPPMLDSDGSFFLYSKLTVDKSRWQQGNVFSCSVMHEALHNHYTQKSLSLSPGK
light: not shown
notes: also called mAb-CD73.4-IgG2.3-plusTHT; CD73.4-Vh-hHC-IgG2.3-plusTHT
For B3, in the experiment with hCD73-his [2], the “UV % Peak1 (<12.9 min)” value stood at 30.6%, the “UV % Peak4 (16.7-19.3 min)” value was 33.7% and the “UV % Peak5 (>19.3 min)” value amounted to 3.2%. For the same molecule, in the experiment with human CD73 on cells [6], the “internalization T1/2, Calu6” value was determined as 21.3 min; the “internalization T1/2, NCI-H292” value turned out to be 17.6 min; the “internalization Ymax, Calu6” value came out at 81.2%; the “internalization Ymax, NCI-H292” value is 91.4%.

B4: GITR.6.G2 (antibody, human IgG2, kappa)
heavy: QVQLVESGGGVVQPGRSLRLSCAASGFTFSSYGMHWVRQAPGKGLEWVAVIWYEGSNKYYADSVKGRFTISRDNSKNTLYLQMNSLRAEDTAVYYCARGGSMVRGDYYYGMDVWGQGTTVTVSSASTKGPSVFPLAPCSRSTSESTAALGCLVKDYFPEPVTVSWNSGALTSGVHTFPAVLQSSGLYSLSSVVTVPSSNFGTQTYTCNVDHKPSNTKVDKTVERKCCVECPPCPAPPVAGPSVFLFPPKPKDTLMISRTPEVTCVVVDVSHEDPEVQFNWYVDGVEVHNAKTKPREEQFNSTFRVVSVLTVVHQDWLNGKEYKCKVSNKGLPAPIEKTISKTKGQPREPQVYTLPPSREEMTKNQVSLTCLVKGFYPSDIAVEWESNGQPENNYKTTPPMLDSDGSFFLYSKLTVDKSRWQQGNVFSCSVMHEALHNHYTQKSLSLSPGK
light: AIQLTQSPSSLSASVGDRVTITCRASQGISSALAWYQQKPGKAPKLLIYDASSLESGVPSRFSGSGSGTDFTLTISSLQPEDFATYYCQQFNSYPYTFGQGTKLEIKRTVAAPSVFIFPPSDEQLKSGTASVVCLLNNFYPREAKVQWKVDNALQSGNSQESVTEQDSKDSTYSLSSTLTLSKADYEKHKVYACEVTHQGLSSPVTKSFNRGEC
Consider B4, for which, in the experiment with human GITR, the “NFKB signaling (phospho-p65), CD4+ T cells, EC50” value was determined as 12.8 nM; the “NFKB signaling (phospho-p65), CD4+ T cells, Emax” value is 69%; the “NFKB signaling (phospho-p65), CD8+ T cells, EC50” value was found to be 9 nM; the “NFKB signaling (phospho-p65), CD8+ T cells, Emax” value was found to be 85%.
